Assay results from patent publication US6689364B2, “Borrelia burgdorferi polypeptides and uses thereof” (Tufts University, priority 2000, dated 2004).
“Also recorded” adds a separate entry of the source.

B1: FTK-OspA (protein)
chain: KQNVSSLDEKNSVSVDLPGEMKVLVSKEKNKDGKYDLIATVDKLELKGTSDKNNGSGVLEGVKADKSKVKLTISDDLGQTTLEVFKEDGKTLVSKKVTSKDKSSTEEKFNEKGEVSEKIITRADGTRLEYTGIKSDGSGKAKEVLKGFTLEGKLTAEKTTLVVKEGTVTLSKNISKSGEVSVELNDTDSSAATKKTAAWNSGTSTLTITVNSKKTKDLVFTKENTITVQQYDSNGTKLEGSAVEITKLDEIKNALK

Key:
[1] = test system: HLA-DRB1*0401 restricted OspA-specific human T cell clones; experiment: Proliferation response of human DR4-restricted T cell clones to OspA; format: cell-based; settings: for proliferation response of T cell clones: three human DR4-restricted T cell clones from a patient with treatment-resistant Lyme arthritis, FIG. 2
Method: (§1) Binding of OspA to HLA-DRB1*0401 is determined by measuring stimulation of T cells reactive with wildtype OspA. The stimulation of T cells is determined by measuring OspA-induced proliferation or cytokine production, including interferon gamma and interleukin 13 (see Examples, below).
(§2) Human T cells were cloned from the synovial fluid of an HLA DRB1*0401 homozygous patient based upon their ability to recognize the epitope OspA165-173 in the context of HLA-DRB1*0401. These clones were then tested for their ability to respond functionally to wild type versus FTK OspA by either proliferation or cytokine secretion.
(§3) Three different human DR4-restricted T cell clones from a patient with treatment-resistant Lyme arthritis were selected for their ability to respond to the wild type OSpA165-173 peptide. […] These T cells proliferate in response to stimulation with wildtype OspA, but not FTK-OspA.

[2] = test system: HLA-DRB1*0401 restricted OspA-specific human T cell clones; experiment: Cytokine production by T cell clones on stimulation with OspA; format: cell-based; settings: for production of interferon gamma by T cell clones: FIG. 3A; for production of interleukin 13 by T cell clones: FIG. 3B
Method: as §1, §2, §3

[3] = test system: monoclonal antibody LA-2; experiment: In vitro binding of protective anti-OspA monoclonal antibody LA-2; settings: in vitro assay, FIG. 6
Source text: Monoclonal antibody LA-2, which provides passive immunity against B. burgdorferi in mice, binds an epitope in OspA.

[4] = test system: N40 B. burgdorferi; experiment: Mouse vaccination and B. burgdorferi challenge, protection against Lyme arthritis; format: in vivo, mice; settings: trials A and B together; for mice protected from development of arthritis: 10 μg vaccine on days 0, 14, 28, day 35 challenge with 5×10^3 or 1×10^4 N40 B. burgdorferi in footpad, day 56 histology; for mice protected from development of arthritis (protected/total): same protocol, number of mice
Source text: The mouse vaccination protocol was based upon experiments in the literature which initially identified OspA as having potential as a vaccine. The vaccine has not been tested in vivo with tick challenge due to the technically difficult nature of the animal handling for such experiments. However, the artificial system used here has been utilized by others in the past and reflects accurately on the protective ability of the modified vaccine. (Fikrig et al, 1997 Immunity 6:531-539; Bockenstedt et al,1993 J Immunol 151:900-906, Fikrig et al, 1992 PNAS 89:5418-5421)
The correlation between infection and arthritis, measured for the first vaccination trial, was 1:1.
(§4) On day 35, the vaccinated mice were exposed to 5×10^3 or 1×10^4 passage 0 N40 B. burgdorferi in the right footpad. On day 56, mice were sacrificed and the following tissue samples were taken for further analysis: ankles (for histology to analyze arthritis), blood and bladder (for culture to detect B. burgdorferi), serum (for serology to determine the antibody response), and ears (for PCR to detect B. burgdorferi).

[5] = test system: OspA; experiment: Serum OspA-specific IgG in immunized mice; format: in vivo; settings: for serum OspA-specific IgG pre-infection: FIG. 7A; for serum OspA-specific IgG post-infection: FIG. 7B
Source text: as §4

Molecule	proliferation response of T cell clones [1]	production of interferon gamma by T cell clones [2]	production of interleukin 13 by T cell clones [2]	binding of monoclonal antibody LA-2 [3]	mice protected from development of arthritis [4] [%]	mice protected from development of arthritis (protected/total) [4]	serum OspA-specific IgG pre-infection [5]	serum OspA-specific IgG post-infection [5]	ability to stimulate OspA-specific T cell clones (proliferation or cytokine secretion) ([1]; clones from synovial fluid of an HLA DRB1*0401 homozygous patient)
wildtype OspA: recombinant wildtype B. burgdorferi outer surface protein A [reference compound]	proliferate	induces production	induces production	binds; also recorded: equivalently	75	12/16	similar	similar	
B1	not	not	not	binds; also recorded: equivalently	87.5	14/16	similar	similar	significantly decreased
